± gives the standard deviation of the averaged measurements.
What follows are sequences tested on ATP (assay: switch fluorescence ratio, 500 uM ATP over buffer (Cy3 cluster intensity, sum of 5 cycles each) (fold (ratio)); higher = stronger signal-on switching upon ATP binding; sequences stand for … in TCGTCGGCAGCGTCAGATGTGTATAAGAGACAGTTTTTTTTTTTTTTTTTTTTTTTTT…TC). Conditions: aptamer strand: ATP DNA aptamer (quencher-CACCTGGGGGAGTATTGCGGAGGAAGG + anchor), 100 nM annealed; ATP concentration: 500 uM.
Procedure, shortened: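 Cy3-labelled switching-strand clusters on a modified Illumina MiSeq flow-cell were annealed to 100 nM quencher-labelled ATP aptamer, imaged in selection buffer, then imaged after 15 min with 500 uM ATP at 22 °C. Five buffer/ATP cycles ran, with NaOH stripping and re-annealing between them. The fluorescence ratio is summed target-cycle over summed buffer-cycle Cy3 intensity per cluster, averaged per switch-domain sequence. Clusters outside 100-1000 RFU were excluded.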
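Further: ATP exposure 15 min at 22 °C before imaging.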

Row | Sequence | switch fluorescence ratio
1 | CCATTTCTTT | 1.01 ± 0.067
2 | CAATTGCGCT | 1.01 ± 0.016
3 | AATATAGTTG | 1.02 ± 0.018
4 | AAAAGAACGA | 1.05 ± 0.074
5 | TGCTGTTTAC | 1.2 ± 0.28
6 | GATATTCCTG | 1 ± 0.03
7 | TGTTTGTATT | 0.955 ± 0.03
8 | TGGACGTCGT | 0.987 ± 0.019
9 | TTATTATTGA | 0.989 ± 0.011
10 | CGTTGGGCAG | 0.953 ± 0.099
11 | TGCGTTTGGG | 1.05 ± 0.064
12 | GCTGCGGCAG | 1.012 ± 0.0046
13 | TTTATTGGT | 1.01 ± 0.018
14 | CGTTATATTT | 1.07 ± 0.14
15 | TTGCAGTAAT | 1.87 ± 1.1
16 | TCGGGAACAG | 1.02 ± 0.035
17 | CTGATTCAGA | 0.98 ± 0.019
18 | CGAATGTTCG | 0.998 ± 0.035
19 | ATAGCATGTA | 0.991 ± 0.01
20 | ATTGATGATA | 1.018 ± 0.0092
21 | GATGTCAAGA | 1.01 ± 0.023
22 | GAAATTTTTT | 1 ± 0.034
23 | GGGTGGTAGA | 1.01 ± 0.04
24 | TCTGAACGGG | 1.02 ± 0.011
25 | GGTCTTGTGG | 0.993 ± 0.032

Row | Sequence | switch fluorescence ratio
26 | ACTTCAGCAG | 1.12 ± 0.023
27 | TATATGCACT | 1.07 ± 0.024
28 | TGACAGGGGA | 1.02 ± 0.033
29 | TTCGGACGT | 1.02 ± 0.013
30 | TTTGCTGTTG | 0.965 ± 0.037
31 | TTAACCGGGG | 1.13 ± 0.16
32 | AGGGGTGATG | 0.9827 ± 0.001
33 | TAATGGTATG | 0.982 ± 0.039
34 | GCTACTGGCC | 1.02 ± 0.039
35 | AGCTGTACTG | 1.09 ± 0.011
36 | GGTTTGGTCA | 1 ± 0.0055
37 | ACACTCACCC | 1.57 ± 0.36
38 | GAAGGTTCAT | 0.961 ± 0.022
39 | ATTTTTCGGC | 0.99 ± 0.02
40 | ACATGGCTAA | 1.08 ± 0.068
41 | GAGAATCGGT | 1.03 ± 0.078
42 | CGAGGCTCCG | 1.05 ± 0.026
43 | CTGTTGGGTC | 0.97927 ± 0.00013
44 | AAATGAGGGG | 0.992 ± 0.03
45 | GACACCATCC | 1.55 ± 0.18
46 | TTGTTTCGTT | 0.9804 ± 0.0073
47 | GCTCGTCGGC | 0.9987 ± 0.0018
48 | CCGGTTGTTG | 1.027 ± 0.0079
49 | CCCGGGAGTG | 1.02 ± 0.028
50 | GGGTAATGTA | 1.02 ± 0.014

Row | Sequence | switch fluorescence ratio
51 | TCCCACTTCG | 1.03 ± 0.053
52 | AAGGGCCTTC | 1.025 ± 0.0071
53 | TTATGCGGGG | 0.995 ± 0.046
54 | TGCGCCCGGG | 1.033 ± 0.0076
55 | TGGGGCCTTT | 0.9981 ± 0.0045
56 | TGCGGATGTT | 0.953 ± 0.013
57 | CATTTGAAGA | 1.01 ± 0.019
58 | ATTTGTTATC | 0.98096 ± 8.4e-05
59 | CGCTAGGGTG | 1.115 ± 0.0032
60 | ACATTCGACC | 1.11 ± 0.062
61 | GCGGGGTCCG | 0.97126 ± 0.00059
62 | GTGTGAGGGC | 0.948 ± 0.035
63 | TAAAGGCGGG | 0.987 ± 0.023
64 | TTGGGTTTAC | 1.02 ± 0.049
65 | AAAGAACGGG | 1.04 ± 0.023
66 | GCCAGCATGG | 1.003 ± 0.0046
67 | TAGAGGTTGG | 0.981 ± 0.042
68 | AGTGAGCAGC | 1.04 ± 0.039
69 | AAGATAGGGA | 0.9792 ± 0.0035
70 | AGGGGGACAG | 0.9761 ± 0.0039
71 | ATGATTTACT | 1.02 ± 0.02
72 | GATTTTGTTT | 0.996 ± 0.027
73 | TGTTGGGCGG | 0.969 ± 0.026
74 | TCATCGCATG | 1.3 ± 0.016
75 | CGTCCGGCGC | 1.346 ± 0.0029

Row | Sequence | switch fluorescence ratio
76 | GGCTTAGAAT | 0.97374 ± 0.00014
77 | TTCCATAGGG | 0.987 ± 0.022
78 | ATGGTAGCTT | 1 ± 0.024
79 | GAGTCGAATT | 0.9738 ± 0.0058
80 | ATTCGGGGCT | 1 ± 0.038
81 | GATGTATTCG | 1.001 ± 0.0089
82 | TTGTATAAA | 1 ± 0.022
83 | CGGAGGCGGT | 1.02 ± 0.047
84 | TCCATGGGAT | 1.007 ± 0.0014
85 | AATAAAGAGT | 0.974 ± 0.015
86 | CCGGTGTGTA | 1.03 ± 0.029
87 | CGCCGAAGGG | 0.98523 ± 0.00014
88 | CTGCAACGGA | 1.13 ± 0.056
89 | GGGCAAGCGA | 1.08 ± 0.043
90 | GTTTTTTTCG | 0.9829 ± 0.007
91 | CGCGGACACG | 1.01 ± 0.048
92 | GGGTTGCTGT | 1.03 ± 0.1
93 | CAGGTTTGTT | 1.12 ± 0.17
94 | TAGCAAGTGG | 0.998 ± 0.043
95 | GACGTTTGGG | 0.982 ± 0.022
96 | AGAATGGAAC | 0.976 ± 0.056
97 | GGGGTTTGGT | 0.984 ± 0.038
98 | TGGGTAGGCG | 1.02 ± 0.016
99 | TGGGGCACGG | 1.09 ± 0.19
100 | ACGTGAGTGT | 0.977 ± 0.0076

Row | Sequence | switch fluorescence ratio
101 | GACGCACTAA | 2.76 ± 0.44
102 | GGGGGGTGGC | 1.05 ± 0.15
103 | AGAATTGGGG | 0.982 ± 0.027
104 | GTGCGATTGG | 1.033 ± 0.0092
105 | GCAGCCTGTT | 0.994 ± 0.011
106 | TTATCATTTA | 1.01 ± 0.03
107 | CGTTAAGCTT | 1.03 ± 0.014
108 | GACGCTGTGC | 3.6 ± 0.41
109 | AACAAGGGCG | 1.03 ± 0.018
110 | TGGGTTAACA | 0.991 ± 0.018
111 | GGATGGAAAG | 0.999 ± 0.015
112 | TGGGTTGATG | 0.959 ± 0.023
113 | TTACGGATAA | 1.49 ± 0.67
114 | CGGTTAACGG | 1 ± 0.025
115 | GGCCTCGGGG | 1.01 ± 0.05
116 | ACCAAAAATG | 1.1 ± 0.13
117 | TTCATGGGAG | 0.99 ± 0.022
118 | CGGTGGATTC | 1.0049 ± 0.00055
119 | TTCAAATGGG | 0.9991 ± 0.0053
120 | AAATATAGTG | 0.991 ± 0.025
121 | GGGAAAACTA | 1 ± 0.028
122 | TTTGTAGATC | 1.06 ± 0.066
123 | CGTGGTCAAC | 0.968 ± 0.047
124 | CCGAAGGGTA | 1.1 ± 0.022
125 | ATGGAGCTTG | 0.983 ± 0.02

Row | Sequence | switch fluorescence ratio
126 | TTTTAGGACA | 0.99977 ± 0.00081
127 | CGTTGCTCGG | 1 ± 0.0083
128 | GGGGCTTATG | 0.968 ± 0.0079
129 | CAGGTAAAAG | 1.01 ± 0.035
130 | GACTCCTGAG | 0.98 ± 0.033
131 | ATAATTTCTG | 0.99 ± 0.016
132 | TAAGGTTTTG | 1.01 ± 0.022
133 | CTGACTGCAG | 1.01 ± 0.049
134 | ACATGTCTGG | 1.001 ± 0.0016
135 | AAAGGAAGGT | 1.01 ± 0.024
136 | ATTGCAGCGG | 1 ± 0.02
137 | TCCGACTGAT | 1.72 ± 0.05
138 | GTATATAAGT | 0.98 ± 0.013
139 | CCACTCTGGG | 0.9984 ± 0.0068
140 | GAGGGGCACG | 0.935 ± 0.1
141 | TGGGGTGCAG | 1.03 ± 0.017
142 | TATTTTTGTT | 1.05 ± 0.074
143 | TTGGTGTAAG | 1.0001 ± 0.00079
144 | GTTTTAGCTG | 0.986 ± 0.059
145 | GGGAGGCCAT | 0.9683 ± 0.0076
146 | GCTCGCACAG | 1.321 ± 0.0081
147 | CAATGTGGCG | 0.922 ± 0.038
148 | AAGGCCTTCG | 1.12 ± 0.021
149 | GCGCTTGGGG | 0.982 ± 0.011
150 | TAATGTAATG | 0.999 ± 0.031

Row | Sequence | switch fluorescence ratio
151 | GGCTGGCACA | 1.002 ± 0.0085
152 | GTGGGTGATA | 0.994 ± 0.036
153 | AGGAGGTGCT | 0.965 ± 0.067
154 | TGCGGTTTAG | 1.04 ± 0.016
155 | CACGGCACGA | 1.36 ± 0.073
156 | TTTCTAGGTT | 1 ± 0.041
157 | AGAGAGCTTT | 1.01 ± 0.021
158 | TCGCTCATGG | 1.03 ± 0.015
159 | ATCAATTTAA | 0.976 ± 0.039
160 | AAGAGGGGAA | 0.988 ± 0.062
161 | GTAAGTAAGA | 1.03 ± 0.017
162 | AGATAATTTG | 0.99459 ± 0.00061
163 | ATGGGCTCCG | 0.974 ± 0.015
164 | TTGTATGGGG | 0.984 ± 0.033
165 | GGTTTTATAC | 1.04 ± 0.02
166 | CATTGACCTT | 1.23 ± 0.067
167 | CCATGTCTGT | 0.963 ± 0.015
168 | GCGGTGCGGG | 0.9878 ± 0.0042
169 | TTTGCACGTT | 1.03 ± 0.037
170 | ACTTGGGGTG | 1.04 ± 0.013
171 | TGGAAAAACT | 1.08 ± 0.029
172 | AGAGATTCGG | 1.012 ± 0.01
173 | CTTCCGGGGT | 1.68 ± 0.1
174 | CTAGGGGATG | 1.03 ± 0.062
175 | TTTTAATGGG | 0.999 ± 0.02

Row | Sequence | switch fluorescence ratio
176 | TTCTGGCAAT | 2.97 ± 0.14
177 | TACCACGGGT | 1.03 ± 0.018
178 | CAGTTGGACA | 0.967 ± 0.031
179 | ATGGGCTCAG | 1.005 ± 0.0033
180 | TGACTTGGG | 0.935 ± 0.02
181 | CCAGAAAGGA | 0.97 ± 0.029
182 | AATTAGGTGG | 1.01 ± 0.039
183 | AAACGAGGAG | 1 ± 0.013
184 | AGAGCATGGG | 0.971 ± 0.016
185 | TTGGTGGGAA | 1 ± 0.025
186 | TACGGTTACT | 1.27 ± 0.014
187 | AAGTGGGTGT | 0.99 ± 0.059
188 | CGGAGGAGCA | 0.968 ± 0.061
189 | GGAGAGTCCG | 1.03 ± 0.036
190 | AATGGGTGAG | 0.982 ± 0.014
191 | TCGGAAGGGG | 1.17 ± 0.3
192 | GAAAGAGTGA | 1.01 ± 0.016
193 | AAAGGGGTGC | 1.05 ± 0.048
194 | TTTCTAGGGG | 1.01 ± 0.028
195 | GAGCGAGGGA | 1.14 ± 0.052
196 | TTATAATTTC | 1.009 ± 0.0023
197 | GGGCAAAATC | 1.04 ± 0.018
198 | ATTTTTTGGC | 0.996 ± 0.01
199 | TCTGTAAGGT | 0.986 ± 0.02
200 | TAGAAAAGGG | 1.03 ± 0.031
